Results: patent US20230183353A1 (ZYDUS LIFESCIENCES, published 2023)
Residue numbers refer to the chain shown, from its start. In names and notes the source's numbering stands. One block for each binder: values may come before it.

Assays:
[1] = biological target: T1, recombinant human neonatal Fc receptor (rhFcRn) (human, UniProt P55899 24-297; P61769 21-119); experiment: SPR (ProteOn XPR36), rhFcRn immobilised on GLC chip, pH 6.0, 25 C
T1 construct: Bought recombinant protein (Sino Biologics), immobilised on a GLC chip; also called Human FcRn; FcRn/FcGRT
Procedure: The kinetic constants for the binding of Fc variants to recombinant human neonatal Fc receptor (rhFcRn) were determined by Surface Plasmon Resonance-based measurement using the ProteOn™ XPR36 (Bio-Rad). The rhFcRn receptor (Sino Biologics) was immobilized on a GLC chip following manufacturer's instruction. 10 mM phosphate buffer saline (PBS) (10 mM phosphate buffer, pH 6.0, 150 mM NaCl, with 0.005% Tweet 20) was used as running buffer to carry out the kinetic measurements. […] Reactions were carried in PBS (pH 6.0, 0.005% surfactant P20) at 25° C. After each sample run, the chip surface was regenerated using two pulses of PBS (0.005% surfactant P20), pH 7.4, followed by one pulse of glycine buffer pH 1.5. The data, in the form of sensograms, was analysed using the data-fitting programs in the ProteOn™ system.

[2] = biological target: T2, recombinant human FcγRIIIa (Phe) (human, UniProt P08637 17-208, limits assumed); experiment: SPR (ProteOn), receptor immobilised on GLC chip by amine coupling, pH 7.4, 25 C
T2 construct: Directly immobilised on a GLC chip by amine coupling; also called FcγRIIIa F158; CD16a
T2 sequence (P08637 17-208 limits assumed): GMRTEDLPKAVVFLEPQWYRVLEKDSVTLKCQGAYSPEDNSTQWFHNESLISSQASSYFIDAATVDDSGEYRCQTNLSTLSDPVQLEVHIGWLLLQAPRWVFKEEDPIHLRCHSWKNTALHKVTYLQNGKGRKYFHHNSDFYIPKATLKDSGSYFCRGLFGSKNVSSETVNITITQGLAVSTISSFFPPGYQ
Procedure: (§1) In this experiment, the kinetic constants for the binding of Fc variant to recombinant Fc gamma receptors were determined by Surface Plasmon Resonance-based measurement using the ProteOn™ […] (Bio-Rad). […] All the recombinant human Fc receptors were directly immobilized on a GLC sensor chip surface using a standard amine coupling chemistry, and essentially, following the manufacturers' instruction. 10 mM phosphate buffered saline (PBS) (10 mM phosphate buffer, pH 7.4, 150 mM NaCl, with 0.005% Tween 20) was used as the running buffer to carry out the kinetic measurements for all the Fc receptor. To measure the association rate constant (kassoc) and dissociation rate constant (kdissoc), five dilutions of Fc variants were prepared in above mentioned running buffer and injected at a flow rate of 50 μL/min. Association time and dissociation time at each interaction is mentioned in table below. All the reactions were performed at 25° C. The data, in the form of sensorgrams, were analyzed using the data-fitting programs available with the ProteOn™ system.

[3] = biological target: T3, recombinant human FcγRIIIa (Val) (human, UniProt P08637 17-208, limits assumed); experiment: as above
T3 construct: Directly immobilised on a GLC chip by amine coupling; also called FcγRIIIa V158; CD16a
T3 sequence (P08637 17-208 F176V limits assumed): as the sequence (P08637 17-208 limits assumed) above, with F160V counted along it
Procedure: as §1

[4] = biological target: recombinant mouse FcRn (mouse, UniProt Q61559 22-297); experiment: SPR (ProteOn XPR36), FcRn immobilised on GLC chip by amine coupling, pH 6.0, 25 C
recombinant mouse FcRn, sequence (Q61559 22-297): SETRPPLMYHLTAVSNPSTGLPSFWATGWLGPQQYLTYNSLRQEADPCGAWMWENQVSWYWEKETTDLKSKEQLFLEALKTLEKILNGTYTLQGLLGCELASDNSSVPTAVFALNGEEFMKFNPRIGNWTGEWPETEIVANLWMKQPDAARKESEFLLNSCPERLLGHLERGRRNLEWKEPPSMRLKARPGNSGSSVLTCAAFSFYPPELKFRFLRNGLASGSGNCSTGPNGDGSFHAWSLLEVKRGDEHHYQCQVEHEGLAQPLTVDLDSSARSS
Procedure: (§2) In this experiment, binding of the Fc variant of the current invention to FcRn of different species was determined by surface plasmon resonance-based measurement using the ProteOn™ XPR36 (Bio-Rad). […] Fc variant used to conduct this experiment was produced using CHO cell as an expression system. FcRn (of different species) was immobilized on a GLC sensor chip surface using a standard amine coupling chemistry, and essentially, following the manufacturers' instruction. 10 mM phosphate buffered saline (PBS) (10 mM phosphate buffer, pH 6.0, 150 mM NaCl, 0.005% Tween 20) was used as the running buffer to carry out the kinetic measurements. To measure the association rate constant (kassoc) and dissociation rate constant (kdissoc), five dilutions of Fc muteins were prepared in above mentioned running buffer and injected at a flow rate of 100 μL/min with an association time of 180 s and dissociation time of 600 s. All the reactions were carried at 25° C. After each sample run, the chip surface was regenerated using PBST, pH 7.4. The data, in the form of sensorgrams, was analyzed using the data-fitting programs in the ProteOn™ system.

[5] = biological target: recombinant monkey FcRn (monkey); experiment: as above
recombinant monkey FcRn (monkey), sequence (Q8SPV9 24-297, chain 1 of 2): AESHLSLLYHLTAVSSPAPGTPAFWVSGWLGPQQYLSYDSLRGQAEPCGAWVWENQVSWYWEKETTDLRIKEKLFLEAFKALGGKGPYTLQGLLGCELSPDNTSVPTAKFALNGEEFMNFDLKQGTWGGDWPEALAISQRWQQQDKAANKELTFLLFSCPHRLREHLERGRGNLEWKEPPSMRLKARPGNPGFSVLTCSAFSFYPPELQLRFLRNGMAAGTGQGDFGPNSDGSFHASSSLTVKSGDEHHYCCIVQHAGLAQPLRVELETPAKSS
recombinant monkey FcRn (monkey), sequence (Q8SPW0 21-119, chain 2 of 2, further chain): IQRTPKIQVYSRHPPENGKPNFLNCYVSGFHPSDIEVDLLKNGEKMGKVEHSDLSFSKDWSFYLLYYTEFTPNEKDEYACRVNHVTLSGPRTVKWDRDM
Procedure: as §2

[6] = biological target: T1, recombinant human neonatal Fc receptor …; experiment: as above
Procedure: as §2

Kd [1]: 3.63 nM
B1: Fc variant F3-9 (SEQ ID No. 20; L432M/H433P/N434F) (other)
chain: DKTHTCPPCPAPELLGGPSVFLFPPKPKDTLMISRTPEVTCVVVDVSHEDPEVKFNWYVDGVEVHNAKTKPREEQYNSTYRVVSVLTVLHQDWLNGKEYKCKVSNKALPAPIEKTISKAKGQPREPQVYTLPPSRDELTKNQVSLTCLVKGFYPSDIAVEWESNGQPENNYKTTPPVLDSDGSFFLYSKLTVDKSRWQQGNVFSCSVMHEAMPFHYTQKSLSLSPGK

Kd [1]: 0.288 nM | Kd [2]: 241 nM | Kd [3]: 205 nM | Kd [4]: 0.615 nM | Kd [5]: 0.801 nM | Kd [6]: 0.791 nM
B2: Fc variant H11+A4 (SEQ ID No. 22; T307N/V308P/L309Y/H433R/N434W), Fc monomer (other)
chain: B1 chain with T87N, V88P, L89Y, M212L, P213R, F214W
notes: also called 22b
